Measurements published in the supplement of paper PMC9170038.

System: MS2 coat protein
Experiment: apparent KD of MS2 coat protein; designed switch direction (-1 OFF switch, 1 ON switch): -1; higher = weaker reporter binding
Method in brief: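 The buffer was Tris-HCl pH 7.5 with KCl, MgCl2, BSA, DTT, tRNA and Tween-20. In it, SNAP-549-labelled MS2 coat protein was titrated in doubling steps from 0.7 or 1.5 nM to 3 µM over chip-bound RNA switches transcribed by stalled E. coli RNA polymerase on Illumina chips. Apparent KD is the per-design median over clusters of curve fits to normalised fluorescence.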

[1] = input ligand: microRNA oligo, concentration not stated
[2] = Eterna round: R95, input ligand: FMN 200 uM
[3] = Eterna round: R95, input ligand: microRNA oligo, concentration not stated
[4] = Eterna round: R95, input ligand: none

| Sequence | apparent KD of MS2 coat protein (input ligand: FMN 200 uM) [µM] | apparent KD of MS2 coat protein (input ligand: none) [µM] | apparent KD of MS2 coat protein [3] [µM] | also measured |
| --- | --- | --- | --- | --- |
| CCGCCGCAAGGAUAUACUUGCGGUGGUGUUCGAGUUCUUUUACUUGAGGAUCACCCAAGUAGAAGGUGCAAAAC [jl-ex2.4.55 ViennaUCT mod] (Eterna round: R97, puzzle: Exclusion 2) | 0.0119 | 0.0115 | – | – |
| GUCAGCUCGUCAGGAUAUAUAUACAUGAGGAUCACCCAUGUAAGAUCAGCACUUCGGUGCAGUAUAUAGAAGGGACGAGCUGAC [ENG2/13-B1] (Eterna round: R96, puzzle: Exclusion NG 2) | 0.0406 | 0.0291 | – | apparent KD of MS2 coat protein [1]: 0.0137 µM |
| GAUCAACAUGAGGAUCACCCAUGUGAGGAUAUGCGAGAAUAGACUUCGGUCAGAUAGAGCAGAAGGCGCAGAUA [EX1 #3] (Eterna round: R97, puzzle: Exclusion 1) | 0.0637 | 0.0379 | – | – |
| AGGUGUAGAGGAUAUCGAGUUCUUUACAUGAGGAUCACCCAUGUCCUGGGCACCCAGGACCGAGAAGGCUACACCA [Omei Ex5 D29] (Eterna round: R97, puzzle: Exclusion 5) | 0.0503 | 0.0328 | – | – |
| CCUCGUUGGGAGGAUAUCCUUUAGAUUGGAGGAGGAGAAGGCUCGACAUGAGGAUCACCCAUGUGGGAUUUCCC [-24.6, -21.9 kcal, A 23%] (Eterna round: R97, puzzle: Exclusion 6) | 0.127 | 0.0356 | – | – |
| GAGAAACAUGAGGAUCACCCAUGUGAGGAUAUGAAAAAGAAAAGAAAAGAAAGAAGAAUCAGAAGGCACAAAGU [salish99-ex1_r3_088] (puzzle: Exclusion 1) | – | – | 0.0297 | apparent KD of MS2 coat protein [2]: 0.0318 µM; apparent KD of MS2 coat protein [4]: 0.0329 µM |
| GAGUAGAGAGGAUAUGCAAUGAUCAUCGUACGAUGAGGCUGACAUGAGGAUCACCCAUGUAGAAGGCUCUGAUC [EX2 #19] (Eterna round: R97, puzzle: Exclusion 2) | 0.0221 | 0.0307 | – | – |
| GAGAAGGUAGGAUAUACGAAAAAAAAGGGUAGAAAAAAAACACAUGAGGAUCACCCAUGUAGAAGGACCAAAAG [salish99_ex2_r3_035] (puzzle: Exclusion 2) | – | – | 0.0246 | apparent KD of MS2 coat protein [2]: 0.0689 µM; apparent KD of MS2 coat protein [4]: 0.028 µM |
| AGCUGUGGCCAAGGAUAUCCAACCUUAAAUACCGACGUAUAGUCGGACAUGAGGAUCACCCAUGUGGAGAAGGUGGUCUCAGCA [Eli eng2 - 042] (Eterna round: R96, puzzle: Exclusion NG 2) | 0.0522 | 0.0301 | – | apparent KD of MS2 coat protein [1]: 0.0337 µM |
| AUUUAUGGAGGAUAUACUUGAGGAUCACCCAAGUGGAGUCCCUUUUGGGCGGUAAAUAGUAGAAGGCCGUCUUA [jl-ex3-4.48 ViennaUCT mod] (Eterna round: R97, puzzle: Exclusion 3) | 0.0209 | 0.0163 | – | – |
| CCGCAUAUGGAGGAUAUCGUAUCGGAAACGAUACGAGAAGGCUAAACAUGAGGAUCACCCAUGUUCCUUAACGG [Fiskers Ex 6 - 29] (puzzle: Exclusion 6) | – | – | 0.0152 | – |
| AUAAAUAGCGAGGAUAUCGUAUCGGAAACGAUACGAGAAGGCGUAACAUGAGGAUCACCCAUGUGUCCUCAAUA [Mat - Exclusion 6 - Eli Mod - D6] (Eterna round: R97, puzzle: Exclusion 6) | 0.801 | 0.0872 | – | – |
| GGUCAGACGGUAGGAUAUCCAUAUUGAGUGACCCUUUCAUAACAUGAGGAUCACCCAUGUCGGUGGGAGAAGGGCCGUACGGCG [salish99_ExNG02_R04_006] (Eterna round: R96, puzzle: Exclusion NG 2) | 0.205 | 0.411 | – | apparent KD of MS2 coat protein [1]: 0.214 µM |
| CUGAGCAGACGGAGAUCCAACAUGAGGAUCACCCAUGUCUCAAAAGCUUUUUGCUUGUCUUAUCCUCCUCUGUUCUC [Xegean] (puzzle: Sensor v3, turn-off variant 1) | – | – | 0.248 | apparent KD of MS2 coat protein [2]: 0.0146 µM; apparent KD of MS2 coat protein [4]: 0.0127 µM |
| GGAUCUAAGGUGAGGAUAUAGACUCCCAAAUGGAUCUAGAAGGCACUUGAGGAUCACCCAAGUAGUCUAGGGAA [Orered] (Eterna round: R97, puzzle: Brourd's mod of Exclusion 4) | 0.0336 | 0.0169 | – | – |
| AAAUAACUAGGAUAUCGAGGCACAGACAUGAGGAUCACCCAUGUGUGGUCUUCGUGCUUACGAGAAGGAGUACGGC [Teceri] (puzzle: Exclusion 5) | – | – | 0.168 | apparent KD of MS2 coat protein [2]: 0.0556 µM; apparent KD of MS2 coat protein [4]: 0.0833 µM |
| CUUUUGUGAGGAUAUCAGUAGUAAUACAAUAGUAUUACUGCUGAGAAGGCACAUGAGGAUCACCCAUGUUCCUC [Ex4 344 Omei mod 10] (puzzle: Exclusion 4) | – | – | 0.0536 | – |
| UAUCGGGACUGAGGAUAUUCGUUCGAGCACGAAGAAGAAGGUAGUGUCAGGGACAUGAGGAUCACCCAUGUGAUCUCAGUCUUA [JL ViennaUCT Erinle mod 8] (Eterna round: R96, puzzle: Exclusion NG 1) | 0.127 | 0.0989 | – | apparent KD of MS2 coat protein [1]: 0.0867 µM |

| Sequence | apparent KD of MS2 coat protein (input ligand: FMN 200 uM) [µM] | apparent KD of MS2 coat protein (input ligand: none) [µM] | apparent KD of MS2 coat protein [3] [µM] | also measured |
| --- | --- | --- | --- | --- |
| GGAAUACAUGAGGAUCACCCAUGUAAGGAUAUGCUGAUUAACACGGAAUAAUUAUGCAGCAGAAGGUACAAAGG [Mat - Mod of my Eli Mod D48] (puzzle: Exclusion 1) | – | – | 0.113 | – |
| GGUGCGUUUGUGAGGAUAUGCUGGUCCUUGGUUCUGCAGAAGGCACAUGAGGAUCACCCAUGUGGUGUCGUACC [salish99_Bmod_Ex4_042] (puzzle: Brourd's mod of Exclusion 4) | – | – | 0.0645 | – |
| CUGUUCCGUGUAGGAUAUGCAUAUUCUCAUUAUGCAGAAGGACAUGAGGAUCACCCAUGUAUGUUAUUAUCAUGUGUUACAUGU [Design 6] (Eterna round: R96, puzzle: Exclusion NG 1) | – | – | – | apparent KD of MS2 coat protein [1]: 0.0224 µM |
| CUCGUGUAAGGAUAUGCGAGCCACGGAAAUAAAACGUGGAGGUAGAAGGUACAUGAGGAUCACCCAUGUAAAAC [Anonveat] (puzzle: Exclusion 4) | – | – | 0.0243 | – |
| UUUUACUGAGGAUAUACAUUUUUUUAUUUAUUUAUAAUAUUACAUGAGGAUCACCCAUGUAGAAGGCAGAUUUU [My Design] (puzzle: Exclusion 2) | – | – | 0.0267 | – |
| AAACGGGACUGAGGAUAUUCGUUCGAACACGAAGAAGAAGGUAGUGUCAGGGACAUGAGGAUCACCCAUGUGAACUCAGUCCCA [Erinle] (Eterna round: R96, puzzle: Exclusion NG 1) | 0.0325 | 0.0323 | – | apparent KD of MS2 coat protein [1]: 0.021 µM |
| GAUGCUCCGGUCAGGAUAUCAGGUGCAAGCACCGGUGAGAAGGGACAUGAGGAUCACCCAUGUAAAAUAAGACC [Aenxeza] (Eterna round: R97, puzzle: Brourd's mod of Exclusion 4) | 0.0407 | 0.024 | – | – |
| GCACUGCGAGGAUAUACAUGAGGAUCACCCAUGUGUCCGCAGCGAUGCGAGUACAAAUGUAGAAGGCGCGUAAA [EX3 #57] (Eterna round: R97, puzzle: Exclusion 3) | 0.0341 | 0.0143 | – | – |
| UGCAGACGAGGAUAUAGAUUUAAGUACAUGAGGAUCACCCAUGUACAUAUGUAUUUAGAUUUAGAAGGCGUCUGCA [E5/16-A2] (Eterna round: R97, puzzle: Exclusion 5) | 0.0282 | 0.0277 | – | – |
| ACAUGACAGCUAGGAUAUAUAUGACAUGAGGAUCACCCAUGUUGUCCCAUGUUGACGAAAACCGAAUAGAAGGAGCCACCCAUG [Ex NG2 #2] (Eterna round: R96, puzzle: Exclusion NG 2) | 0.0861 | 0.0714 | – | apparent KD of MS2 coat protein [1]: 0.0536 µM |
| AUUUAAACAUAGGAUAUCGAAUUUAUUAUUUAACGAGAAGGAUGAACAUGAGGAUCACCCAUGUGGUAUCAUGG [Mat - Exclusion 6 - JL Mod - D25] (puzzle: Exclusion 6) | – | – | 0.815 | apparent KD of MS2 coat protein [2]: 0.693 µM; apparent KD of MS2 coat protein [4]: 0.26 µM |
| AGGACAUCAGGCGGCAUGUACAUGAGGAUCACCCAUGUCCUAGAAAGCUGUAUGCUCGUCUUAGGCCCAACCUCGCU [Eternabot (Original) Solution 13] (Eterna round: R97, puzzle: Sensor, turn-off variant 1) | 0.0651 | 0.061 | – | – |
| GGUUGGCGAGGAUAUACAUGAGGAUCACCCAUGUGAGUGAAAAAAGUGAGGAAGAAAAGUAGAAGGCGCUGACG [salish99_ex3_r3_008] (puzzle: Exclusion 3) | – | – | 0.254 | apparent KD of MS2 coat protein [2]: 0.288 µM; apparent KD of MS2 coat protein [4]: 0.196 µM |
| UAUUUGUGAGGAUAUGAGUCGUAGAACAAUAGUACUACGUCUCAGAAGGCACAUGAGGAUCACCCAUGUACCUC [Fiskers Ex 4 Super Stable 44 mod 30] (puzzle: Exclusion 4) | – | – | 0.0169 | – |
| CUGGUGUGAGGAUAUCAAAGACCUCGGUAAAGAACCGAGGAUGAGAAGGCACAUGAGGAUCACCCAUGUAACAA [Lauscege] (puzzle: Exclusion 4) | – | – | 0.0226 | – |
| GUCGAGUGAGGAUAUGGUGAGUAGUGCCUGAGCGCUGCUCACCAGAAGGCACAUGAGGAUCACCCAUGUAUAAC [Mat - Exclusion 4 - Mod of JL - D14] (puzzle: Exclusion 4) | – | – | 0.0223 | – |
| GGUGGACAUGAGGAUCACCCAUGUGAGGAUAUCGGCCGGUUCGCGGUGGCUGGCGUCUCGAGAAGGCACAUAGU [Exclusion 1 V72] (puzzle: Exclusion 1) | – | – | 0.0864 | – |
| CCAGCAAAUGUGAGGAUAUGCUGGUCCUUGGAUCAGCAGAAGGCACAUGAGGAUCACCCAUGUGGGAUAGCUGG [Eli bmx4 4.59] (Eterna round: R97, puzzle: Brourd's mod of Exclusion 4) | 0.412 | 0.194 | – | – |
